Source: patent US20250223330A1 (OUTPACE BIO, published 2025)

T1: IL2Rb/g-Fc (UniProt P14784 27-239; P31785 23-262, limits assumed)
T1 construct: Captured at 12 ug/mL on ProA tips; also called IL-2/15Rβγ; IL-2Rβγ; not shown: Fc part
T1 sequence (looked up) 1: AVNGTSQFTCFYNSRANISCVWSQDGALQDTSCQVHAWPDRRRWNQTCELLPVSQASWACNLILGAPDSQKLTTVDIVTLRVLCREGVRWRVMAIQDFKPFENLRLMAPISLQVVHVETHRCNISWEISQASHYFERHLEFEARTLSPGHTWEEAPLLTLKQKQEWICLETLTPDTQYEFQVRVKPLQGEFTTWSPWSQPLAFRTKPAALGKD
T1 sequence (looked up) 2: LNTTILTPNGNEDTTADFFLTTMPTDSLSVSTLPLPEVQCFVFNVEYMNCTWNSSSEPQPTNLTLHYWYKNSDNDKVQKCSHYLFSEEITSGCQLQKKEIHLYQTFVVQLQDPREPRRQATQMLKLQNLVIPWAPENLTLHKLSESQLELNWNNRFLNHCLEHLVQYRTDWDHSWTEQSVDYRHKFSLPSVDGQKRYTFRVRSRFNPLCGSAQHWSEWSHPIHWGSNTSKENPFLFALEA

T2: CD25-Fc (UniProt P01589 22-213, limits assumed)
T2 construct: Bought reagent; The same stock (100 ug/mL aliquots) was used as CD25-Fc in the ELISA and as IL2Ra-Fc on ProA tips in the Octet assay; also called IL2Ra-Fc; CD25 (IL2Ra); not shown: Fc part of the bought fusion
T2 sequence (looked up): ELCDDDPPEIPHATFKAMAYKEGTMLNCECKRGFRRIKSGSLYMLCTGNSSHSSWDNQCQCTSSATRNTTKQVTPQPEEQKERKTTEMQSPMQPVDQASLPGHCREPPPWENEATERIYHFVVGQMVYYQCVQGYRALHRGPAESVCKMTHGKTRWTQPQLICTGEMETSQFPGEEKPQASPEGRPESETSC


target: T1, IL2Rb/g-Fc; assay: Octet (BLI), IL2Rb/g-Fc captured on ProA tips, cytokine in solution; settings: not given

Row | Molecule | Kd [nM]
1 | Designed Cytokine No. 153 (designed binder, also called Design 3) APTSSSTKKTQLQLEHLLLDLQMILNGINNMNADPELVEFLNRWITFCQSIISTGSVDPEELAKELQKLEEELKPLEEVLNLAQSKNFHLRPRDLISNINVIVLELKGSGSGNWSHPQFEK | 3.9
2 | Designed Cytokine No. 169 (designed binder, also called Design 1) APTSSSTKKTQLQLEHLLLDLQMILNGINNMNADPELVEFLNRWITFCQSIISTGSLEDLKHLQALEEELKPLEEVLNLAQSKNFHLRPRDLISNINVIVLELKGSGSGNWSHPQFEK | ~1.6

target: CD25-Fc (UniProt P01589); assay: BLI; settings: ligand

Row | Molecule | Kd [nM]
3 | WT IL-2 (from UniProt P60568 21-153) | 20

target: T2, CD25-Fc; assay: ELISA, STII-tagged cytokine captured on Strep-Tactin plate, CD25-Fc detected; settings: not given

Row | Molecule | binding result
4 | Designed Cytokine No. 39 (designed binder) APTSSSTKKTQLQLEHLLLDLQMILNGINNMNADPELVEFLNRWITFCQSLIKKGSNEDLKHLQALEEELKPLEEVLNLAQSKNFHLRPRDLISNINVIVLELKGSGSGGSGNWSHPQFEK | no binding
5 | Designed Cytokine No. 40 (designed binder) APTSSSTKKTQLQLEHLLLDLQMILNGINNGNADPELVEFLNRWITFCQSLIKKGSNEDLKHLQALEEELKPLEEVLNLAQSKNFHLRPRDLISNINVIVLELKGSGSGGSGNWSHPQFEK | no binding

target: T2, CD25-Fc; assay: ELISA, STII-tagged cytokine captured on Strep-Tactin plate, CD25-Fc detected (FIG. 5A); settings: not given

Row | Molecule | binding result
6 | SEQ ID NO 28 (designed binder, ELISA captured STII-tagged protein from supernatant; also called Designed Cytokine No. 28) APTSSSTKKTQLQLEHLLLDLQMILNGAEVDPKIKEFLNRWITFCQSVIKANKDTREELKHLQALEERLKPLEEVLNRAQSKNFHLRPRDLISNINVIVLELKGS | no binding
7 | SEQ ID NO 22 (designed binder, ELISA captured STII-tagged protein from supernatant; also called Designed Cytokine No. 22) APTSSSTKKTQLQLEHLLLDLQMILNLAEVDPTMKEFLNRWITFCESNSESALKHLQALEEELKPLEEVLNLAQSKNFHLRPRDLISNINVIVLELKGS | no binding
8 | SEQ ID NO 34 (designed binder, ELISA captured STII-tagged protein from supernatant; also called Designed Cytokine No. 34) APTSSSTKKTQLQLEHLLLDLQMILNGINNYKNPKLTEIDPKLVEFLNRWITFCQSAIKSGSNTAKELQALEEELKPLEEVLNLAQSKNFHLRPRDLISNINVIVLELAGS | no binding
9 | SEQ ID NO 38 (designed binder, ELISA captured STII-tagged protein from supernatant; also called Designed Cytokine No. 38) APTSSSTKKTQLQLEHLLLDLQMILNGINNMNADPELVEFLNRWITFCQTAISTGKDNLKHLQALEEELKPLEEVLNLAQSKNFHLRPRDLISNINVIVLELKGS | no binding
10 | SEQ ID NO 21 (designed binder, ELISA captured STII-tagged protein from supernatant; also called Designed Cytokine No. 21) APTSSSTKKTQLQLEHLLLDLQMILNALKKLNINSPMQEFLNRWITFCESNTEDALKHLQALEEELKPLEEVLNLAQSKNFHLRPRDLISNINVIVLELKGS | no binding
11 | SEQ ID NO 30 (designed binder, ELISA captured STII-tagged protein from supernatant; also called Designed Cytokine No. 30) APTSSSTKKTQLQLEHLLLDLQMILNALKKLNINSPMQEFLNRWITFCESNTEDALKHLQALEERLKPLEEVLNRAQSKNFHLRPRDLISNINVIVLELKGS | no binding
12 | SEQ ID NO 33 (designed binder, ELISA captured STII-tagged protein from supernatant; also called Designed Cytokine No. 33) APTSSSTKKTQLQAEHLLLDLQMILNGINNYKNPKLTRMLTFGGTATIVEFLNRWITFCESGADEEAAKSLQALEEELKPLEEVLNLAQSKNFHLRPRDLISNINVIVLELKGS | no binding
13 | SEQ ID NO 26 (designed binder, ELISA captured STII-tagged protein from supernatant; also called Designed Cytokine No. 26) APTSSSTKKTQLQLEHLLLDLQMILNFPVDSEMVEFLNRWITFAEKGTEDALKELQALEEELKPLEEVLNLAQSKNFHLRPRDLISNINVIVLELKGS | no binding
14 | SEQ ID NO 25 (designed binder, ELISA captured STII-tagged protein from supernatant; also called Designed Cytokine No. 25) APTSSSTKKTQLQLEHLLLDLQMILNFPVDSEMVEFLNRWITFAEKGTEDANKELQALEEELKPLEEVLNLAQSKNFHLRPRDLISNINVIVLELKGS | no binding
15 | SEQ ID NO 23 (designed binder, ELISA captured STII-tagged protein from supernatant; also called Designed Cytokine No. 23) APTSSSTKKTQLQLEHLLLDLQMILNFPVDSEMVEFLNRWITFAQKGDESALKHLQALEEELKPLEEVLNLAQSKNFHLRPRDLISNINVIVLELKGS | no binding
16 | SEQ ID NO 31 (designed binder, ELISA captured STII-tagged protein from supernatant; also called Designed Cytokine No. 31) APTSSSTKKTQLQLEHLLLDLQMILNFPVDSEMVEFLNRWITFAEKGTEDALKELQALEERLKPLEEVLNRAQSKNFHLRPRDLISNINVIVLELKGS | no binding
17 | SEQ ID NO 32 (designed binder, ELISA captured STII-tagged protein from supernatant; also called Designed Cytokine No. 32) APTSSSTKKTQLQLEHLLLDLQMILNGINNYKNPKLTRMLTFGGTATIVEFLNRWITACQREADPEALQALEEELKPLEEVLNLAQSKNFHLRPRDLISNINVIVLELMGS | no binding
18 | SEQ ID NO 19 (designed binder, ELISA captured STII-tagged protein from supernatant; also called Designed Cytokine No. 19) APTSSSTKKTQLQLEHLLLDLQMIANALNKLGIESPFLNRWITFCQSNHEDAAKHLQALEEELKPLEEVLNLAQSKNFHLRPRDLISNINVIVLELMGS | no binding
19 | SEQ ID NO 17 (designed binder, ELISA captured STII-tagged protein from supernatant; also called Designed Cytokine No. 17) APTSSSTKKTQLQLEHLLLDLQMILNGMNNGNADPELVEFLNRWITFAQDGSADLKHLQALEEELKPLEEVLNLAQSKNFHLRPRDLISNINVIVLELKGS | no binding
20 | SEQ ID NO 18 (designed binder, ELISA captured STII-tagged protein from supernatant; also called Designed Cytokine No. 18) APTSSSTKKTQLQLEHLLLDLQMILNGINNMNADPELVEFLNRWITFAQDGSADLKHLQALEEELKPLEEVLNLAQSKNFHLRPRDLISNINVIVLELKGS | no binding
21 | SEQ ID NO 27 (designed binder, ELISA captured STII-tagged protein from supernatant; also called Designed Cytokine No. 27) APTSSSTKKTQLQLEHLLLDLQMILNGINNMNADPELVEFLNRWITFCQSLIKKGSNEDLKHLQALEERLKPLEEVLNRAQSKNFHLRPRDLISNINVIVLELKGS | no binding
22 | SEQ ID NO 20 (designed binder, ELISA captured STII-tagged protein from supernatant; also called Designed Cytokine No. 20) APTSSSTKKTQLQLEHLLLDLQMIANALNKLGIESPFLNRWITFCQSVISASDDTREELKHLQALEEELKPLEEVLNLAQSKNFHLRPRDLISNINVIVLELKGS | no binding
23 | SEQ ID NO 37 (designed binder, ELISA captured STII-tagged protein from supernatant; also called Designed Cytokine No. 37) APTSSSTKKTQLQLEHLLLDLQMILNGINNYKNPKLTKLDPSLVEFLNRWITFCQSATSDPDLLKHLQALEEELKPLEEVLNLAQSKNFHLRPRDLISNINVIVLELKGS | no binding
24 | SEQ ID NO 35 (designed binder, ELISA captured STII-tagged protein from supernatant; also called Designed Cytokine No. 35) APTSSSTKKTQLQLEHLLLDLQMILNGINNYKNPKLTEIDPKLVEFLNRWITFCQTIINGGESATLKHLQALEEELKPLEEVLNLAQSKNFHLRPRDLISNINVIVLELKGS | no binding
25 | SEQ ID NO 36 (designed binder, ELISA captured STII-tagged protein from supernatant; also called Designed Cytokine No. 36) APTSSSTKKTQLQLEHLLLDLQMILNGINNYKNPKLTEIDPKLVEFLNRWITFCQSIINGDESFSLKHLQALEEELKPLEEVLNLAQSKNFHLRPRDLISNINVIVLELKGS | no binding
26 | SEQ ID NO 24 (designed binder, ELISA captured STII-tagged protein from supernatant; also called Designed Cytokine No. 24) APTSSSTKKTQLQLEHLELDLQMILNLAEVDPTMKEFLNRWITEAQSSNATLKSLQALEEELKPLEEVLNLAQSKNFHLRPRDLISNINVIVLELKGS | no binding
27 | SEQ ID NO 29 (designed binder, ELISA captured STII-tagged protein from supernatant; also called Designed Cytokine No. 29) APTSSSTKKTQLQLEHLLLDLQMILNALNKLNINDHIVEFLNRWITFCQSATSDPDLLKHLQALEERLKPLEEVLNRAQSKNFHLRPRDLISNINVIVLELKGS | no binding
